According to patent publication US20240279345A1, “ALPHA 5 BETA 1 INTEGRIN BINDING AGENTS AND USES THEREOF” (PASITHEA THERAPEUTICS CORP., priority 2021, published 2024):

Experiments:
[1] = molecular target: T1, purified recombinant human α5β1 integrin heterodimer, 6×His tagged (rh-α5β1); Acro Biosystems, cat. no. … (human, UniProt P08648 42-995; P05556 21-728); experiment: BLI (Octet), supernatant mAb on anti-mouse IgG Fc sensor, 20 nM rh-α5β1
T1 construct: bought recombinant heterodimer; also called rh-α5β1-6×His tagged protein; His-tagged-α5β1
T1 sequence (P08648 42-995 limits assumed, form in doubt, chain 1 of 2): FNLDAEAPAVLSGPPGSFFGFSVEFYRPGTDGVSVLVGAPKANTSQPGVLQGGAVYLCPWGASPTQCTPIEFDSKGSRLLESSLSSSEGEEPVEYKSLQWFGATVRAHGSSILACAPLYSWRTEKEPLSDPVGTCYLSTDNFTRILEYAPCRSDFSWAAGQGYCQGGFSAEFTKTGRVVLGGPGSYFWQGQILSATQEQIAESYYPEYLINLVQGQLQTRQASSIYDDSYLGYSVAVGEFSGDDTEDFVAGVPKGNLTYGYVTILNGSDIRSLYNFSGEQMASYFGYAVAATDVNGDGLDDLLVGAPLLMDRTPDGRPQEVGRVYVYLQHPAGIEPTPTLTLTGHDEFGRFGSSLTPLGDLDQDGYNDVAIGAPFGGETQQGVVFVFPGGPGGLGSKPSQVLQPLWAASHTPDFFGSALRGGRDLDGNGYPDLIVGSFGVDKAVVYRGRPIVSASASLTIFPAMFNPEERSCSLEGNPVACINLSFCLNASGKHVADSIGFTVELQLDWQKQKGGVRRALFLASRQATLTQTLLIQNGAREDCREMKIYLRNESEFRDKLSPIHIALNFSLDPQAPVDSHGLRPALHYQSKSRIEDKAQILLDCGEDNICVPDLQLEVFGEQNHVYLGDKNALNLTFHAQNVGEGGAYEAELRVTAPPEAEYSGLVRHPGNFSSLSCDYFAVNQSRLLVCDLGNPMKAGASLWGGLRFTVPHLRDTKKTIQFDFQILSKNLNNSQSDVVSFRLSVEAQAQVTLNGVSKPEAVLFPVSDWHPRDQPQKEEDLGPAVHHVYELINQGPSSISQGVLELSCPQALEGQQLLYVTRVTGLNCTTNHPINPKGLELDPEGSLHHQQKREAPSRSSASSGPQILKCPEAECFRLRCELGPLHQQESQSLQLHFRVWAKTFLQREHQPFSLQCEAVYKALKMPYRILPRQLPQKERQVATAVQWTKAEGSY
T1 sequence (P05556 21-728 limits assumed, form in doubt, chain 2 of 2): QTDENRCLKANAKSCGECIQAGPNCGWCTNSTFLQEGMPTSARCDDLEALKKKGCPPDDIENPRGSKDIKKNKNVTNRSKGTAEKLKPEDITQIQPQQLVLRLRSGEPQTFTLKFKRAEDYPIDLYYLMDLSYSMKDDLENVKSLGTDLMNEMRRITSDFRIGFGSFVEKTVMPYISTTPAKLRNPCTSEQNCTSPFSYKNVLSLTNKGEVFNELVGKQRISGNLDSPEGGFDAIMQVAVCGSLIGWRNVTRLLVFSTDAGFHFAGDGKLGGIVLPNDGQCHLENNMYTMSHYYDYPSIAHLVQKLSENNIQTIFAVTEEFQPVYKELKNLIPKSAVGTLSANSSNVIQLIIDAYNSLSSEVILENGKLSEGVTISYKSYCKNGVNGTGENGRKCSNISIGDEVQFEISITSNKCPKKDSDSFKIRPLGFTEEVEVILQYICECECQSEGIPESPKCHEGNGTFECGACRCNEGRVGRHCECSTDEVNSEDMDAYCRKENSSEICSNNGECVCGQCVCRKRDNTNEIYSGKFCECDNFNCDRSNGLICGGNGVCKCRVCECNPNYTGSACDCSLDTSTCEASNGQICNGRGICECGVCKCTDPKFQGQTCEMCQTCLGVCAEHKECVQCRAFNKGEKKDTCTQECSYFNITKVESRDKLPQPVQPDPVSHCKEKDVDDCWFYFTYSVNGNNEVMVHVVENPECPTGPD
From the text: Anti-Mouse IgG Fc biosensors were used to load each clone supernatant. Assay steps were as follows: Sensor Check (30s)-->Load Ab (700s)-->Quench (480s)-->Baseline(480s)-->Ab Assoc. (600s)-->Dissoc. (600s).

[2] = molecular target: T1, purified recombinant human α5β1 …; experiment: ELISA, inhibition of rh-α5β1-His binding to coated FN, purified hybridoma mAb
Procedure: Immulon4 HBX ELISA 96-well plates were coated with FN by incubation overnight at 4° C. with 2.5 μg/mL human FN (R&D Systems, Minneapolis, MN 55413, cat. no. 1918-FN) in 1×PBS (0.01M phosphate buffer and 0.154M NaCl, pH 7.4). Plates were then washed 3 times with Wash Buffer (1× Tris Buffered Saline containing 0.05% Tween20), blocked with 2% BSA in 1×TBS for 2 hours at room temperature (RT). […] Isotype control antibody (Control Ab; Ms IgG2a EMD Millipore Corp, Billerica, MA, cat. no. PP102) was used to normalize data across different assay runs. […] Following 1 hour at RT, the wells were washed 3 times, incubated with biotinylated Anti-6×His-Tag Ab (Invitrogen, Carlsbad, CA, cat. no. MAI-21315-BTIN) at 1:1000 in Standard Diluent for 1 hour, washed 3 times, incubated for 30 minutes with poly-HRP Streptavidin (Thermo Fisher Scientific, Waltham, MA, cat. no. N200), washed 4 times, incubated with TMB substrate (Thermo Fisher Scientific, Waltham, MA, cat. no. N301) for 2-5 minutes, followed by addition of ELISA Stop Solution (Invitrogen, Carlsbad, CA, cat. no. SS04). Absorbance 450 nm was measured. Data points were normalized to the isotype Control Ab values at each concentration and reported as % Absorbance 450 nm normalized to Control Ab. Non-linear regression analysis was used to fit curves (4-parameter) to the data using GraphPad Prism version 9.0.2 (GraphPad Software, LLC, San Diego, CA).

[3] = molecular target: T2, recombinant human α5β1 integrin (rh-α5β1; R&D Systems, cat. no. 3230-A5) (human, UniProt P08648 42-995; P05556 21-728); experiment: ELISA, coated rh-α5β1, supernatant 1:10
T2 construct: bought recombinant heterodimer
T2 sequence (P08648 42-995 limits assumed, form in doubt, chain 1 of 2): as the sequence (P08648 42-995 limits assumed, form in doubt, chain 1 of 2) above
T2 sequence (P05556 21-728 limits assumed, form in doubt, chain 2 of 2): as the sequence (P05556 21-728 limits assumed, form in doubt, chain 2 of 2) above
Procedure: Plates were washed 3 times with Wash Buffer (1× Tris Buffered Saline containing 0.05% Tween20), blocked with 2% BSA in 1×TBS (made from 10× Thermo Scientific Blocker BSA (10×) in TBS; Thermo Fisher Scientific, Waltham, MA, cat. no. 37520) for 2 hours at room temperature (RT) then incubated with hybridoma supernatants diluted 1:10 with Standard Diluent (2% BSA, 1×TBS, 0.05% Tween20). […] Absorbance 450 nm was measured.

[4] = molecular target: T3, recombinant human α5β1 integrin (rh-α5β1) (Homo sapiens, UniProt P05556+P08648); experiment: Plate-based ELISA reactivity to rh-α5β1; format: binding; settings: selected for further characterization among α5 specific hybridomas (28 selected)
T3 construct: purchased R&D Systems 3230-A5
T3 sequence (P08648 42-894 limits assumed): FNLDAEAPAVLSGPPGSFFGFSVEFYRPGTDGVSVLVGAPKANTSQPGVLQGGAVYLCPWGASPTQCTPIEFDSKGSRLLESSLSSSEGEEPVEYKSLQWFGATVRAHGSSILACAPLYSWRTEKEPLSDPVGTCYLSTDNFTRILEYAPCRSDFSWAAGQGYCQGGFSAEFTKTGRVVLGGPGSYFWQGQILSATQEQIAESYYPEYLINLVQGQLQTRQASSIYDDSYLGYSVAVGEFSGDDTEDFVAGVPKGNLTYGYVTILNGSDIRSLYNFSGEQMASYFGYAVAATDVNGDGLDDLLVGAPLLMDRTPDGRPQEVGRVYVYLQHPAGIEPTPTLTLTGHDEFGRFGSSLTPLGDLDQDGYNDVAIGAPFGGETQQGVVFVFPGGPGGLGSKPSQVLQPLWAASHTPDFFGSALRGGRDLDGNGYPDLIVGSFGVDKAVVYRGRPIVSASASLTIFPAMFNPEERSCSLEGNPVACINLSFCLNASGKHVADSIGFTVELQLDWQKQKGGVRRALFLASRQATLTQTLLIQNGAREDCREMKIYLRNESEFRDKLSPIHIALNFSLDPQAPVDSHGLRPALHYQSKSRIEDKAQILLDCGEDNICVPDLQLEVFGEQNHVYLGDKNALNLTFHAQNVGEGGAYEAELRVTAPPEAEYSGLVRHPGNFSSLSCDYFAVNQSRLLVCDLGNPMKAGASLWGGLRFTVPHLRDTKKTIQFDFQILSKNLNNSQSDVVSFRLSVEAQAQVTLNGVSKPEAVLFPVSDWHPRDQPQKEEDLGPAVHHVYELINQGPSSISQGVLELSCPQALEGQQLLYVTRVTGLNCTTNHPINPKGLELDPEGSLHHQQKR
T3 sequence (P08648 895-995 limits assumed): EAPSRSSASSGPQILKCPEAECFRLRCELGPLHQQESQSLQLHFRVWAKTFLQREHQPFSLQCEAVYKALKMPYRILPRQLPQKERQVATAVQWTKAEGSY
T3 sequence (P05556 21-728 limits assumed): as the sequence (P05556 21-728 limits assumed, form in doubt, chain 2 of 2) above
Procedure: (§1) The 249 positive hybridoma supernatants selected as described in Example 1 were screened for reactivity to rh-α5β1 in a plate-based ELISA. Immulon4 HBX ELISA 96-well plates (Thermo Fisher Scientific, Waltham, MA, cat. no. 3855) were coated with rh-α5β1 (R&D Systems, Minneapolis, MN 55413, cat. no. 3230-A5), at 1 μg/mL in PBS supplemented with 0.5 mM MgCl2, MnCl2 and CaCl2 and incubated overnight at 4° C. Plates were washed 3 times with Wash Buffer (1× Tris Buffered Saline containing 0.05% Tween20), blocked with 2% BSA in 1×TBS (made from 10× Thermo Scientific Blocker BSA (10×) in TBS; Thermo Fisher Scientific, Waltham, MA, cat. no. 37520) for 2 hours at room temperature (RT) then incubated with hybridoma supernatants diluted 1:10 with Standard Diluent (2% BSA, 1×TBS, 0.05% Tween20). Following a 1 hour incubation at RT, wells were washed 3 times, incubated with biotinylated goat anti-mouse secondary antibody at 1:8000 dilution (Invitrogen, Carlsbad, CA, cat. no. 62-6540) for 1 hour, washed 3 times, then incubated for 30 minutes with poly-HRP Streptavidin (Thermo Fisher Scientific, Waltham, MA, cat. no. N200), washed 4 times, incubated with TMB (Thermo Fisher Scientific, Waltham, MA, cat. no. N301) for 5-10 minutes, followed by addition of ELISA Stop Solution (Invitrogen, Carlsbad, CA, cat. no. SS04). Absorbance 450 nm was measured.

[5] = molecular target: rh-α5β1 (Homo sapiens, UniProt P05556+P08648); experiment: Competition binding studies by Biolayer Interferometry (epitope groups); settings: for Response (nm) / % Response: secondary mAb pre-mixed with 20 nM rh-α5β1; for % Response: relative to antigen alone; for epitope group: two epitope groups among 6 antibodies
Sequence of rh-α5β1 (P08648 42-894 limits assumed): as the sequence (P08648 42-894 limits assumed) above
Sequence of rh-α5β1 (P08648 895-995 limits assumed): as the sequence (P08648 895-995 limits assumed) above
Sequence of rh-α5β1 (P05556 21-728 limits assumed): as the sequence (P05556 21-728 limits assumed, form in doubt, chain 2 of 2) above
Procedure: Epitope analysis via competition binding studies was performed using Biolayer Interferometry (BLI) on the 6 antibodies selected as described in Example 5. The anti-α5β1 FN blocking antibodies A2-7A05, C-14D12 and A-15B08 were immobilized on sensors and incubated with each of the other antibodies that had been preincubated with rh-α5β1, to determine whether this antibody-antigen association prevents or allows binding to the antibody on the sensor. The magnitude of observed binding (response) was compared to binding of antigen alone under the same conditions. If the overall response was greater than 120% of antigen binding alone, then the antibodies can pair with each other. If response was less than 80% of response of antigen binding alone, then the antibodies block each other. The protocol was as follows: preincubate the panel of antibodies with antigen (1 hr). Equilibrate the sensor (30 seconds (s))-->Load lead Ab on the sensor (700s)--->Quench (480s)--->Read baseline (480s)-->measure preincubated Ab+Ag association with loaded sensor (600s).

[6] = molecular target: T4, recombinant mouse α5β1 (rm-α5β1) (Mus musculus, UniProt P09055+P11688); experiment: Plate-based ELISA cross-reactivity to rm-α5β1; format: binding; settings: hybridoma supernatant diluted 1:10; plate coated with rm-α5β1
T4 construct: purchased R&D Systems 7728-A5
T4 sequence (P11688 45-898 limits assumed): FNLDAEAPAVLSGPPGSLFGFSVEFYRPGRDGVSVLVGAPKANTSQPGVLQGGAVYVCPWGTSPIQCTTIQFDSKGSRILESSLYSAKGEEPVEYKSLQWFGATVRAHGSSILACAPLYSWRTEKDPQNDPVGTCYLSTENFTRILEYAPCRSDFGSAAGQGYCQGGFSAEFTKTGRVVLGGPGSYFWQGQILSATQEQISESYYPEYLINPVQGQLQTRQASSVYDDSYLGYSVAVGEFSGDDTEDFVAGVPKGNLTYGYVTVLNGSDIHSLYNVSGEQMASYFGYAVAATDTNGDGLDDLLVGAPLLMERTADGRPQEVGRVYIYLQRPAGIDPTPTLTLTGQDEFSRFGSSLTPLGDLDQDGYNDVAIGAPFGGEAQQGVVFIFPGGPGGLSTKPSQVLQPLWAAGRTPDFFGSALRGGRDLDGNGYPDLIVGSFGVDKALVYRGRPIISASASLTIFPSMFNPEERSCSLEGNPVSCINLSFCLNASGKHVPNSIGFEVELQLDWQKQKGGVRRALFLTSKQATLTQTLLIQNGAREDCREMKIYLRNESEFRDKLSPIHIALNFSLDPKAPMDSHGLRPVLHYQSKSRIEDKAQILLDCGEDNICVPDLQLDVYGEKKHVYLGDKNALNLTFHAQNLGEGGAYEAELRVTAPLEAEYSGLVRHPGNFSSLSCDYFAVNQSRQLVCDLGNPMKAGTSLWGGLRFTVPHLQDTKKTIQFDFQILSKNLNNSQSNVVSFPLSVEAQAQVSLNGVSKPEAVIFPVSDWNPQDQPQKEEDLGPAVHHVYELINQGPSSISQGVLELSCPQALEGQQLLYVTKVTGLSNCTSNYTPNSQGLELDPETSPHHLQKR
T4 sequence (P11688 899-999 limits assumed): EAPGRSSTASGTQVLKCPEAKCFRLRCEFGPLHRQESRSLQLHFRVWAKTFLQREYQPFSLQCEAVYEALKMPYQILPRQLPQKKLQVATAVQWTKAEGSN
T4 sequence (P09055 21-728 limits assumed): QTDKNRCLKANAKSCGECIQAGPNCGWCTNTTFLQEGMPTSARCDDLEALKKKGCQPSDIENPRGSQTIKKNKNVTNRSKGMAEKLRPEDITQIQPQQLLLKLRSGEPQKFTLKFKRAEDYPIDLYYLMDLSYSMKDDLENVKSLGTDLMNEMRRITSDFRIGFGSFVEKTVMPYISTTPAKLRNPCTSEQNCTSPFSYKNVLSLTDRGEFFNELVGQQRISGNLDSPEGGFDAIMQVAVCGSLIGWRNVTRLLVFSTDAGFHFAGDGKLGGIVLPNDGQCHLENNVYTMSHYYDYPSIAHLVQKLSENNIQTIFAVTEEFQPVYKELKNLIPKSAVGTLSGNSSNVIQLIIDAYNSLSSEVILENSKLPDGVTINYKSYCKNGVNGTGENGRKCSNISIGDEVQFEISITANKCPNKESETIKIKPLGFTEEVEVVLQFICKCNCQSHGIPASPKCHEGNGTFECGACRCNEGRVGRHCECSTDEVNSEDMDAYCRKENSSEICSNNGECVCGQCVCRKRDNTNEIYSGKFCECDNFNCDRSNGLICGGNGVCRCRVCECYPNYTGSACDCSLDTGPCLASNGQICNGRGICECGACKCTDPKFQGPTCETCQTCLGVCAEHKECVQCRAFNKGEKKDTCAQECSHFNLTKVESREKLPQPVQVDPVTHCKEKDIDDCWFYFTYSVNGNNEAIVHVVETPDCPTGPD
Procedure: as §1
In addition, hybridomas were tested for cross-reactivity to recombinant mouse α5β1 (rm-α5β1; R&D Systems, Minneapolis, MN 55413; cat. no. 7728-A5) using the same protocol as above except that the plates were coated with rm-α5β1.

Row | Molecule | Kd [1] [nM] | koff [1] [s⁻¹] | kon [1] [M⁻¹ s⁻¹] | % Max Inhibition [2] [%] | Selected Human α5 Specific [4] | Response (nm) ([5]; immobilized mAb A2-7A05) | % Response ([5]; immobilized mAb A2-7A05) [%] | Response (nm) ([5]; immobilized mAb A-15B08) | % Response ([5]; immobilized mAb A-15B08) [%] | Response (nm) ([5]; immobilized mAb C-14D12) | % Response ([5]; immobilized mAb C-14D12) [%] | epitope group [5] | other results
1 | A-15B08 (antibody, V domains shown, mouse hybridoma antibody; also called A-15B08 (hybridoma)) VH: QVQLKESGPGLVAPSQSLSITCTISGFSLTSYGVHWVRQPPGKGLEWLVVIWSDGSTTYNSTLKSRLSISKDNSKSQVFFKMNSLQTDDTAMYYCARHYDYDGDWFAYWGQGTLVTVSA VL: QIVLTQSPAIMSASLGERVTMTCTASSRVSSNSLHWYQQKPGSSPKLWIYSTSNLASGVPARFSGSGSGTSYSLTISSMEAEDAATYYCHQYLRSPPTFGGGTKLEIK | 1.31 | 0.000431 | 328000 | 96 | – | – | – | – | – | – | – | – | –
2 | A2-3B06 (antibody, V domains shown, mouse hybridoma antibody) VH: QVQLKESGPGLVAPSQSLSITCTISGFSLTTYGVHWVRQPPGKGLEWLVVIWSDGSTTYNSALKSRLNITKDNSKSQVFLKMNSLQTDDTAMYYCVRHGGLLRRDAMDYWGQGTSVTVSS VL: QIVLTQSPAIMSASLGERVTMTCTASSSVSSNSFHWYQQKPGSSPKLWLYSTSNLASGVPARFSGSGSGTSYSLTISSMEAEDAATYYCHQYLRSPPTFGGGTKLEIK | 4.74 | 0.00137 | 289000 | 93 | – | – | – | – | – | – | – | – | Absorbance 450 nm [3]: 2.03
3 | C-14D12 (antibody, V domains shown, mouse hybridoma antibody; also called C-14D12 (hybridoma)) VH: QVQLKESGPDLVAPSQSLSITCTVSGFSLTDYGVHWVRQPPGKGLEWLVVIWSDGSTTYNSALKSRLSITKDTSKRQVFLKMNSLQTDDTAMYYCARHAPSFIRYGSRYDALDYWGQGTSVTVSS VL: QIVLTQSPAIMSASLGERVTLTCTASSSVTSSFLHWYQQKPGSSPKLWIYSTSNLASGVPARFSGSGSGTSYSLTISSMEAEDAATYYCHQYHRSPPTFGGGTKLEIK | 0.379 | 9.94e-05 | 263000 | 96 | – | – | – | – | – | – | – | – | –
4 | A2-7F01: anti-α5β1 antibody, VH SEQ ID NO:91, VL SEQ ID NO:92 (antibody, V domains shown, A2-7F01 VH Sequence; A2-7F01 VL Sequence) VH: QVQLQQPGAELVKPGASVKLSCKASGYTFTIYWINWVKQRPGQGLEWIGNIYPGSSSTNYNEKFKTKATLTVDTSSSTAYMQLSSLTSDDSAVYYCAITGTGGFAYWGQGTLVTVSA VL: ENVLTQSPAIMSASLGEKVTMSCRASSSVNYMYWYQQKSDASPKLWIYFTSSLAPGVPTRFSGSGSGNSFSLTISSMEGEDAATYYCQQLTGSPFTFGSGTRLEIK | – | – | – | – | Yes | −0.17 | −472.70 | 0.29 | 142.59 | 0.30 | 133.09 | one group | binding of rh-α5β1 complexed with antibody to A-15B08 on the sensor ([5]; antibody preincubated with rh-α5β1, A-15B08 immobilized on sensor): able to bind; binding of rh-α5β1 complexed with antibody to C-14D12 on the sensor ([5]; antibody preincubated with rh-α5β1, C-14D12 immobilized on sensor): able to bind
5 | A2-5D10: anti-α5β1 antibody, VH SEQ ID NO:51, VL SEQ ID NO:52 (antibody, V domains shown, A2-5D10 VH Sequence; A2-5D10 VL Sequence) VH: QVQLKESGPGLVAPSQSLSITCTISGFSLTSYGVHWVRQPPGKGLEWLVVIWSDGSTTYNSTLKSRLSISKDNSKSQVFLKMNSLQTDDTAMYYCARHYDYDGDWFAYWGQGTLVTVSA VL: QILLTQSPAIMSASLGERVTMTCTASSSVSSRCLHWYQQKPGSSPKLWIYSTSNLASGVPARFRGSGSGTSYSLTISSMEAEDAATYYCHQYYRSPPTFGGGTKLEIK | – | – | – | – | Yes | 0.17 | 448.38 | 0.22 | 106.82 | 0.24 | 106.12 | second group | binding of rh-α5β1 complexed with antibody to A2-7A05 on the sensor ([5]; antibody preincubated with rh-α5β1, A2-7A05 immobilized on sensor): able to bind
6 | A-3A08: hybridoma clone positive on K562 cells (antibody, V domains shown) VH: QVQLKESGPGLVAPSQSLSITCTISGFSLTTYGVHWVRQPPGKGLEWLVVIWSDGSTTYNSALKSRLNITKDNSKSQVFLKMNSLQTDDTAMYYCVRHGGLLRRDAMDYWGQGTSVTVSS VL: QIVLTQSPAIMSASLGERVTMTCTASSSVSSNSFHWYQQKPGSSPKLWLYSTSNLASGVPARFSGSGSGTSYSLTISSMEAEDAATYYCHQYLRSPPTFGGGTKLEIK | – | – | – | – | – | – | – | – | – | – | – | – | Absorbance 450 nm Mouse α5β1 [6]: 0.6708
